This data set concerns the molecule itself. Put plainly: FRET or BRET; in vitro; purified protein randomly labelled with fluorescein (donor) and Alexa Fluor 594 (acceptor) at an engineered N-terminal cysteine; 250 nM protein, 22 °C, excitation 420 nm; Chelex-treated Ca2+-free buffer, FRET reduced as Ca2+ was added.

B1: single-cysteine EFSAM-GrpE (CGG-EFSAM(58-209)-linker-GrpE(1-171)), labelled with fluorescein and/or Alexa Fluor 594 (other, mouse | Thermus thermophilus HB8)
chain: CGGSEDEKLSFEAVRNIHKLMDDDANGDVDVEESDEFLREDLNYHDPTVKHSTFHGEDKLISVEDLWKAWKSSEVYNWTVDEVIQWLITYVELPQYEETFRKLQLTGHAMPRLAVTNTTMTGTVLKMTDRSHRQKLQLKALDTVLFGPPLLTRHNLELSRANSSTLAAVTSGSELMEERNHENTLEKDLEAVGQEAQALEERLKAAEEELKGLKDKYLRLLADFDNYRKRMEEELKAREREGVLKALRALLPVLDDLDRALEFAEASPESIRQGVRAIRDGFFRILAGLGVEEVPGEGEAFDPRYHEAVGLLPGEPGKVAKVFQRGFRMGEALVRPARVAVGEEKR
modifications: fluorescein-5-maleimide or Alexa Fluor 594 C5 maleimide on the engineered N-terminal cysteine (random labelling, ~0.8-0.9:1 fluorophore to protein)
notes: engineered stretch with the single cysteine, immediately N-terminal to EFSAM residue 58; STIM1 ER-luminal EFSAM domain, mouse, residues 58-209; linker between EFSAM and GrpE; GrpE, Thermus thermophilus HB8, residues 1-171 (nucleotides 2222-2734 of GenBank AB012390.1); also called double-labelled EFSAM-GrpE; donor/acceptor-labelled EFSAM-GrpE; source: E. coli BL21, purified (Ni-NTA, Superdex 200 …)
As for B1, the binding result was “binds”.
